According to US20120316071A1 (published 2012):
Positions count from the first letter of the chain named.

What was measured:
[1] = biological target: T1, Recombinant Human DLL4 (R&D Systems Cat#1506-D4/CF) (human, UniProt Q9NR61 27-524); assay: MSD Multispot ECL, antigen spotted on plate, Fab at 60 nM; blank spot 237
T1 construct: Bought recombinant protein; also called rHuman DLL4; delta-like protein 4

[2] = biological target: T2, rHuman Notch-1/Fc Chimera, CF (R&D Systems Cat#3647-TK) (human, UniProt P46531 19-526); assay: as above
T2 construct: Bought Fc chimera; Fc part of the bought chimera not given

[3] = biological target: T3, rHuman Erythropoietin R/Fc Chimera, CF (R&D Systems Cat#963-ER) (human, UniProt P19235 25-250); assay: as above
T3 construct: Bought Fc chimera; also called EPO R/Fc; Epo R; Fc part of the bought chimera not given
T3 sequence (looked up): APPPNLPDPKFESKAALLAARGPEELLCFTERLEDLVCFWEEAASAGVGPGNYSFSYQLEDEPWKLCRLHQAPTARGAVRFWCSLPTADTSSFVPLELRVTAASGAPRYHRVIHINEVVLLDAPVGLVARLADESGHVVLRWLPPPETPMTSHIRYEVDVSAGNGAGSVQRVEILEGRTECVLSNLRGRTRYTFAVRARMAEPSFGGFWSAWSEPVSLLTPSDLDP

[4] = biological target: T4, rHuman CD44/Fc Chimera, CF (R&D Systems Cat#3660-CD) (human, UniProt P16070 21-220); assay: as above
T4 construct: Bought Fc chimera; Fc part of the bought chimera not given

[5] = biological target: T5, rHuman P-Cadherin/Fc Chimera, CF (R&D Systems Cat#861-PC) (human, UniProt P22223 108-654); assay: as above
T5 construct: Bought Fc chimera; Fc part of the bought chimera not given

[6] = biological target: T6, rHuman HGF R/c-MET/Fc Chimera, CF (R&D Systems Cat#358-MT/CF) (human, UniProt P08581 25-932); assay: Multispot ECL (MSD) titration; antigen spotted on plate; Fab 24.5 nM; blank spot 149
T6 construct: Bought Fc chimera; also called HGF R/Fc; hepatocyte growth factor receptor; Fc part of the bought chimera not given

[7] = biological target: T7, Recombinant Human DLL4 (R&D Systems Cat#1506-D4/CF) (human, UniProt Q9NR61 27-524); assay: as above
T7 construct: Bought recombinant protein; also called delta-like protein 4; rHuman DLL4

[8] = biological target: T8, rHuman Erythropoietin R/Fc Chimera, CF (R&D Systems Cat#963-ER) (human, UniProt P19235 25-250); assay: as above
T8 construct: Bought Fc chimera; also called EPO R/Fc; EPO R; Fc part of the bought chimera not given
T8 sequence (looked up): T3 sequence (looked up)

[9] = biological target: T9, rHuman CD44/Fc Chimera, CF (R&D Systems Cat#3660-CD) (human, UniProt P16070 21-220); assay: as above
T9 construct: Bought Fc chimera; Fc part of the bought chimera not given

[10] = biological target: T10, rHuman Notch-1/Fc Chimera, CF (R&D Systems Cat#3647-TK) (human, UniProt P46531 19-526); assay: as above
T10 construct: Bought Fc chimera; Fc part of the bought chimera not given

[11] = biological target: T11, rHuman P-Cadherin/Fc Chimera, CF (R&D Systems Cat#861-PC) (human, UniProt P22223 108-654); assay: as above
T11 construct: Bought Fc chimera; Fc part of the bought chimera not given

[12] = biological target: T12, rHuman ErbB2/Fc Chimera, CF (R&D Systems Cat#1129-ER) (human, UniProt P04626 23-652); assay: as above
T12 construct: Bought Fc chimera; also called human epidermal growth factor 2 receptor; Fc part of the bought chimera not given

[13] = biological target: T13, rHuman IGF-1 sR (IGF-1 sR), CF (R&D Systems Cat#391-GR) (human, UniProt P08069 31-932); assay: as above
T13 construct: Bought soluble receptor; also called insulin-like growth factor-1 soluble receptor

[14] = biological target: T14, rHuman CD44/Fc Chimera, CF (R&D Systems Cat#3660-CD) (human, UniProt P16070 21-220); assay: MSD multispot ECL, antigen spotted, Fab 0.1 nM; blank spot 201
T14 construct: Bought reagent

[15] = biological target: T15, Recombinant Human DLL4 (R&D Systems Cat#1506-D4/CF) (human, UniProt Q9NR61 27-524); assay: as above
T15 construct: Bought recombinant protein; also called rHuman DLL4; delta-like protein 4

[16] = biological target: T16, Recombinant Human DLL4 (R&D Systems Cat#1506-D4/CF) (human, UniProt Q9NR61 27-524); assay: Multispot ECL (MSD), antigen spotted on plate, Fab 125 nM; blank spot 403
T16 construct: Bought recombinant protein; also called rHuman DLL4; delta-like protein 4

[17] = biological target: T17, rHuman Erythropoietin R/Fc Chimera, CF (R&D Systems Cat#963-ER) (human, UniProt P19235 25-250); assay: as above
T17 construct: Bought recombinant protein; also called EPO R/Fc; Epo R; Fc part of the bought chimera not given
T17 sequence (looked up): T3 sequence (looked up)

[18] = biological target: T18, rHuman Notch-1/Fc Chimera, CF (R&D Systems Cat#3647-TK) (human, UniProt P46531 19-526); assay: as above
T18 construct: Bought recombinant protein; Fc part of the bought chimera not given

[19] = biological target: T19, rHuman IGF-1 sR, CF (R&D Systems Cat#391-GR) (human, UniProt P08069 31-932); assay: as above
T19 construct: Bought recombinant soluble receptor; also called insulin-like growth factor-1 soluble receptor

T6 sequence (P08581 25-932, change not shown): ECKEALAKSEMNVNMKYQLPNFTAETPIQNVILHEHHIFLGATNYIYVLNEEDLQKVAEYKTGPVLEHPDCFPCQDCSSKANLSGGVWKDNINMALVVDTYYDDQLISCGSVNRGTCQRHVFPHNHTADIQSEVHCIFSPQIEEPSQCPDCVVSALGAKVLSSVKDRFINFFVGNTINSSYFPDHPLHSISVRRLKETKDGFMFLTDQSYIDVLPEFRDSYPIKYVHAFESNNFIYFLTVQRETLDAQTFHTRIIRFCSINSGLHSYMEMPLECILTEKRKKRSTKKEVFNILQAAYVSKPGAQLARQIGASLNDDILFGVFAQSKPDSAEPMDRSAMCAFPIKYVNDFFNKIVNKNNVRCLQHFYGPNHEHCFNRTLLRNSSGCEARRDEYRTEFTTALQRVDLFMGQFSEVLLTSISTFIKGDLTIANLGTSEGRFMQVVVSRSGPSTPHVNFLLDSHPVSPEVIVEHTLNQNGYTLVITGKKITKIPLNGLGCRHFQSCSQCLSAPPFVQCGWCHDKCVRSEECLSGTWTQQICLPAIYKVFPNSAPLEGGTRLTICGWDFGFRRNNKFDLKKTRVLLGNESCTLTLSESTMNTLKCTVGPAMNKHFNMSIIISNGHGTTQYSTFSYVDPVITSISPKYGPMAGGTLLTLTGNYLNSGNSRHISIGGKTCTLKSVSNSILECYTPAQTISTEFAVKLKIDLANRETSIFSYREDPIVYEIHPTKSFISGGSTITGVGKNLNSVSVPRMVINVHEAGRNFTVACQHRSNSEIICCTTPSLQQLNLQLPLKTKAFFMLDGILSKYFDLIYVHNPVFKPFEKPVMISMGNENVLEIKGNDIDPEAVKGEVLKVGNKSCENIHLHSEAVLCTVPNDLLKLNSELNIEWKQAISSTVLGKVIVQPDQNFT

B1: Fab VH6-1_IGHD3-3*01_IGHJ4*01 & V4-3_IGLJ4*01 (Fab, V domains shown)
VH: QVQLQQSGPGLVKPSQTLSLTCAISGDSVSSNSAAWNWIRQSPSRGLEWLGRTYYRSKWYNDYAVSVKSRITINPDTSKNQFSLQLNSVTPEDTAVYYCAREYYDFWSGYYTDYFDYWGQGTLVTVSS
VL: QPVLTQPTSLSASPGASARLTCTLRSGINLGSYRIFWYQQKPESPPRYLLSYYSDSSKHQGSGVPSRFSGSKDASSNAGILVISGLQSEDEADYYCMIWHSSASFVFGGGTQLIIL
notes: Tested as a purified germline Fab made in E. coli; The VH was cloned into plasmid A (CH1 constant region, His6 and Flag tags) and the lambda VL into plasmid E (lambda CL)
Which results are given for B1?
ECL signal [1]: 875; ECL signal [2]: 415; ECL signal [3]: 423; ECL signal [4]: 434; ECL signal [5]: 372

B2: Fab VH1-46_IGHD3-10*01_IGHJ4*01 & O1_IGKJ1*01 (Fab, V domains shown)
VH: QVQLVQSGAEVKKPGASVKVSCKASGYTFTSYYMHWVRQAPGQGLEWMGIINPSGGSTSYAQKFQGRVTMTRDTSTSTVYMELSSLRSEDTAVYYCAREYYYGSGSYYNDYFDYWGQGTLVTVSS
VL: DIVMTQTPLSLPVTPGEPASISCRSSQSLLDSDDGNTYLDWYLQKPGQSPQLLIYTLSYRASGVPDRFSGSGSGTDFTLKISRVEAEDVGVYYCMQRIEFPSWTFGQGTKVEIKR
notes: Germline library Fab expressed in E. coli; VH was cloned into Plasmid A (CH1 constant region, His6 and Flag tags); The kappa VL was cloned into Plasmid C (kappa CL)
What does the source list for B2?
ECL signal [6]: 211; ECL signal [7]: 339; ECL signal [8]: 4530; ECL signal [9]: 267; ECL signal [10]: 434; ECL signal [11]: 257; ECL signal [12]: 241; ECL signal [13]: 239

B3: Fab VH1-46_IGHD6-6*01_IGHJ1*01 & L6_IGKJ1*01 (Fab, V domains shown)
VH: QVQLVQSGAEVKKPGASVKVSCKASGYTFTSYYMHWVRQAPGQGLEWMGIINPSGGSTSYAQKFQGRVTMTRDTSTSTVYMELSSLRSEDTAVYYCAREEYSSSSAEYFQHWGQGTLVTVSS
VL: not shown
notes: Only variable domains are tied to the molecule; Tested as a Fab made in E. coli: heavy chain from Plasmid A (CH1 constant region, His6 and Flag tags), kappa light chain from Plasmid C (kappa CL); also called parent Hit Fab against DLL4; VH1-46_IGHD6-6*01_IGHJ1*01 & L6_IGKJ1*01 (parental)
B3 was tested. Which ECL signal [14] did it give?
Its ECL signal is 323 ECL signal.

What about the ECL signal [15] of the same binder?
The ECL signal was 317 ECL signal.

B4: Fab VH1-46_IGHD6-13*01_IGHJ4*01 & B3_IGKJ1*01 (Fab, V domains shown)
VH: B3 VH with E100G, S105W, A106Y, E107D, Q110D, H111Y
VL: not shown
notes: Germline Fab made in E. coli; VH was cloned into Plasmid A (CH1, His6 and Flag tags) and the kappa VL into Plasmid C (kappa CL)
B4 was tested. Which ECL signal [16] did it give?
Its ECL signal is 912.

And the ECL signal [17]?
Its ECL signal is 9240.

And the ECL signal [18]?
The ECL signal was 802.

What about the ECL signal [19] of the same binder?
Its ECL signal is 654.
